According to PMC3898117 (Biochemical Journal, 2013):

Molecular target: recombinant RNMT (RNA guanine-7 methyltransferase) (UniProt O43148 1-476)
Assay: cell-based or functional assay

Chain of recombinant RNMT (RNA guanine-7 methyltransferase) (O43148 whole entry): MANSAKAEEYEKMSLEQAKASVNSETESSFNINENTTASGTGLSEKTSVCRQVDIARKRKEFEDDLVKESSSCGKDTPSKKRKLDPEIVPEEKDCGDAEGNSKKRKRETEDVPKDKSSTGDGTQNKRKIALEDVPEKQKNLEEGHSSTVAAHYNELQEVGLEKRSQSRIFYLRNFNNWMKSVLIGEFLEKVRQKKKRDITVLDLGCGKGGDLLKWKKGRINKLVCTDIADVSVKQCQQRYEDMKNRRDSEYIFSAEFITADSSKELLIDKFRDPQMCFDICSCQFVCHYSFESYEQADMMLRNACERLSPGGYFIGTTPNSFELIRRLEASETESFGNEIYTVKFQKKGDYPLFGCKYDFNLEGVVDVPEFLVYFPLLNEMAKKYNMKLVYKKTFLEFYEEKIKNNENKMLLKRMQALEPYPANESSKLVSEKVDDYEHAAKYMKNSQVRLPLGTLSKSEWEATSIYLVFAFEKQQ

B1: GST–RAM 1–55 (domain or fragment, human, UniProt Q9BTL3 1-55, looked up)
chain: MTDTAEAVPKFEEMFASRFTENDKEYQEYLKRPPESPPIVEEWNSRAGGNQRNRG
in vitro cap methyltransferase activity of 15 nM RNMT pre-incubated with 15 nM GST–RAM 1–55, compared with GST control: > 5 fold
